Target: T1, HLA-A*02:01 (human)
T1 construct: whole, on cells; MHC class I molecule, empty until peptide is added; detected with FITC anti-HLA-A02 antibody BB7.2
Assay: MHC class I stabilization on T2-A24 cells, flow cytometry, 100 ug/mL peptide

Row | Binder | MFI (solvent ratio)
1 | NLDLGWPYV [FAM83B-derived peptide F103_9] | ≥ 1.5 ratio to solvent
2 | MVQIITGQLV [FAM83B-derived peptide F257_10] | ≥ 1.5 ratio to solvent
3 | FLAEEEINYIL [FAM83B-derived peptide F55_11] | ≥ 1.5 ratio to solvent
4 | RLCSSSDTLV [FAM83B-derived peptide F799_10] | ≥ 1.5 ratio to solvent
5 | RFLQQRMPTL [FAM83B-derived peptide F475_10] | ≥ 1.5 ratio to solvent
6 | GLLGGTHIDLL [FAM83B-derived peptide F114_11] | ≥ 1.5 ratio to solvent
7 | SMVQIITGQLV [FAM83B-derived peptide F256_11] | ≥ 1.5 ratio to solvent
8 | VMYGSYSYMWSF [FAM83B-derived peptide F239_12] | ≥ 1.5 ratio to solvent
9 | FLAEEEINYI [FAM83B-derived peptide F55_10] | ≥ 1.5 ratio to solvent
10 | KVIALVMDI [FAM83B-derived peptide F148_9] | ≥ 1.5 ratio to solvent
11 | TYQHSVSSLASV [FAM83B-derived peptide F305_12] | ≥ 1.5 ratio to solvent
12 | FLQQRMPTL [FAM83B-derived peptide F476_9] | ≥ 1.5 ratio to solvent
13 | HGLEAYQEFLV [FAM83B-derived peptide F38_11] | ≥ 1.5 ratio to solvent
14 | YILKNVQKV [FAM83B-derived peptide F63_9] | ≥ 1.5 ratio to solvent
15 | FLLVDCQKVM [FAM83B-derived peptide F231_10] | ≥ 1.5 ratio to solvent
16 | ALVMDIFTDV [FAM83B-derived peptide F151_10] | ≥ 1.5 ratio to solvent
17 | SYMWSFEKAHL [FAM83B-derived peptide F245_11] | ≥ 1.5 ratio to solvent
18 | TLSSGTYWPV [FAM83B-derived peptide F86_10] | ≥ 1.5 ratio to solvent
19 | HYKEWYRVAI [FAM83B-derived peptide F23_10] | ≥ 1.5 ratio to solvent
20 | KPLPESIPKL [FAM83B-derived peptide F593_10] | ≥ 1.5 ratio to solvent
21 | HLLTIKETI [FAM83B-derived peptide F131_9] | ≥ 1.5 ratio to solvent

Target: T2, HLA-A*24:02 (human)
T2 construct: whole, on cells; MHC class I molecule, empty until peptide is added; detected with FITC anti-HLA-A24 antibody 17A10
Assay: as above

Row | Binder | MFI (solvent ratio)
22 | RFLQQRMPTL [FAM83B-derived peptide F475_10] | ≥ 1.5 ratio to solvent
23 | VMYGSYSYMWSF [FAM83B-derived peptide F239_12] | ≥ 1.5 ratio to solvent
24 | KVIALVMDI [FAM83B-derived peptide F148_9] | ≥ 1.5 ratio to solvent
25 | TYQHSVSSLASV [FAM83B-derived peptide F305_12] | ≥ 1.5 ratio to solvent
26 | FLQQRMPTL [FAM83B-derived peptide F476_9] | ≥ 1.5 ratio to solvent
27 | HGLEAYQEFLV [FAM83B-derived peptide F38_11] | ≥ 1.5 ratio to solvent
28 | SYMWSFEKAHL [FAM83B-derived peptide F245_11] | ≥ 1.5 ratio to solvent
29 | HYKEWYRVAI [FAM83B-derived peptide F23_10] | ≥ 1.5 ratio to solvent
30 | KPLPESIPKL [FAM83B-derived peptide F593_10] | ≥ 1.5 ratio to solvent
31 | HLLTIKETI [FAM83B-derived peptide F131_9] | ≥ 1.5 ratio to solvent

Target: T1, HLA-A*02:01
Assay: as above
Remark: another data set of the same source

Row | Binder | MFI (solvent ratio)
32 | NLDLGWPYV [FAM83B-derived peptide F103_9] | 2.6 ratio to solvent
33 | MVQIITGQLV [FAM83B-derived peptide F257_10] | 1.9 ratio to solvent
34 | FLAEEEINYIL [FAM83B-derived peptide F55_11] | 3.6 ratio to solvent
35 | RLCSSSDTLV [FAM83B-derived peptide F799_10] | 2.1 ratio to solvent
36 | RFLQQRMPTL [FAM83B-derived peptide F475_10] | 1.9 ratio to solvent
37 | GLLGGTHIDLL [FAM83B-derived peptide F114_11] | 2.9 ratio to solvent
38 | SMVQIITGQLV [FAM83B-derived peptide F256_11] | 3.2 ratio to solvent
39 | VMYGSYSYMWSF [FAM83B-derived peptide F239_12] | 1.6 ratio to solvent
40 | FLAEEEINYI [FAM83B-derived peptide F55_10] | 3.5 ratio to solvent
41 | KVIALVMDI [FAM83B-derived peptide F148_9] | 2.4 ratio to solvent
42 | TYQHSVSSLASV [FAM83B-derived peptide F305_12] | 2 ratio to solvent
43 | FLQQRMPTL [FAM83B-derived peptide F476_9] | 2 ratio to solvent
44 | HGLEAYQEFLV [FAM83B-derived peptide F38_11] | 2.5 ratio to solvent
45 | YILKNVQKV [FAM83B-derived peptide F63_9] | 3.3 ratio to solvent
46 | FLLVDCQKVM [FAM83B-derived peptide F231_10] | 2 ratio to solvent
47 | ALVMDIFTDV [FAM83B-derived peptide F151_10] | 3.4 ratio to solvent
48 | SYMWSFEKAHL [FAM83B-derived peptide F245_11] | 1.5 ratio to solvent
49 | TLSSGTYWPV [FAM83B-derived peptide F86_10] | 3 ratio to solvent
50 | HYKEWYRVAI [FAM83B-derived peptide F23_10] | 2 ratio to solvent
51 | KPLPESIPKL [FAM83B-derived peptide F593_10] | 1.9 ratio to solvent
52 | HLLTIKETI [FAM83B-derived peptide F131_9] | 1.5 ratio to solvent

Target: T2, HLA-A*24:02
Assay: as above
Remark: another data set of the same source

Row | Binder | MFI (solvent ratio)
53 | NLDLGWPYV [FAM83B-derived peptide F103_9] | 1.1 ratio to solvent
54 | MVQIITGQLV [FAM83B-derived peptide F257_10] | 1.1 ratio to solvent
55 | FLAEEEINYIL [FAM83B-derived peptide F55_11] | 1 ratio to solvent
56 | RLCSSSDTLV [FAM83B-derived peptide F799_10] | 1.2 ratio to solvent
57 | RFLQQRMPTL [FAM83B-derived peptide F475_10] | 3 ratio to solvent
58 | GLLGGTHIDLL [FAM83B-derived peptide F114_11] | 1.1 ratio to solvent
59 | SMVQIITGQLV [FAM83B-derived peptide F256_11] | 1.1 ratio to solvent
60 | VMYGSYSYMWSF [FAM83B-derived peptide F239_12] | 4 ratio to solvent
61 | FLAEEEINYI [FAM83B-derived peptide F55_10] | 1.2 ratio to solvent
62 | KVIALVMDI [FAM83B-derived peptide F148_9] | 1.6 ratio to solvent
63 | TYQHSVSSLASV [FAM83B-derived peptide F305_12] | 3.1 ratio to solvent
64 | FLQQRMPTL [FAM83B-derived peptide F476_9] | 2.6 ratio to solvent
65 | HGLEAYQEFLV [FAM83B-derived peptide F38_11] | 3.1 ratio to solvent
66 | YILKNVQKV [FAM83B-derived peptide F63_9] | 1 ratio to solvent
67 | FLLVDCQKVM [FAM83B-derived peptide F231_10] | 1 ratio to solvent
68 | ALVMDIFTDV [FAM83B-derived peptide F151_10] | 1 ratio to solvent
69 | SYMWSFEKAHL [FAM83B-derived peptide F245_11] | 2.9 ratio to solvent
70 | TLSSGTYWPV [FAM83B-derived peptide F86_10] | 1 ratio to solvent
71 | HYKEWYRVAI [FAM83B-derived peptide F23_10] | 3 ratio to solvent
72 | KPLPESIPKL [FAM83B-derived peptide F593_10] | 3.5 ratio to solvent
73 | HLLTIKETI [FAM83B-derived peptide F131_9] | 2.4 ratio to solvent
